Measured values: patent US20230056445A1 (published 2023)
Where two headings read alike, the source gives them in different places.

Legend:
[1] = molecular target: T1, human IL-7Rα (IL-7R) on human PBMCs / monocytes (human, UniProt P16871 21-459); assay: cell-based or functional assay
T1 chain: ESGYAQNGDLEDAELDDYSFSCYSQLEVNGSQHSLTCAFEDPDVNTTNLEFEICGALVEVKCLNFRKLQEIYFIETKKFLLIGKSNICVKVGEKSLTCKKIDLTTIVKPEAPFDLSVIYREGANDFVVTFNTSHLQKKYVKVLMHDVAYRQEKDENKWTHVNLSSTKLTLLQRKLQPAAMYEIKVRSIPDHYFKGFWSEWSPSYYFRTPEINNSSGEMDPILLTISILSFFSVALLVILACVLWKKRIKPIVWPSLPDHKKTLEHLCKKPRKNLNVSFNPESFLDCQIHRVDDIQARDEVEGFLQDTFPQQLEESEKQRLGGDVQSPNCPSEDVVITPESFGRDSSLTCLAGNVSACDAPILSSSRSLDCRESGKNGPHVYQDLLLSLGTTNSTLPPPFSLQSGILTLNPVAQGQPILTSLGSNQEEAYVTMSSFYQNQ

[2] = molecular target: T1, human IL-7Rα (IL-7R) on human PBMCs / …; assay: cell-based or functional assay

IL-7 induced pSTAT5 in hPBMCs EC50 [1]: 2.86 nM
IL-7 induced pSTAT5 in hPBMCs EC50 [2]: 2.86 nM
B1: V7R-2E9 (VHH, not shown: small tags and cut ends)
VHH: EVQLVESGGGLVQAGGSLRLSCESSISTFSSDAMGWFRQAPGKEREFLAAIGWSGAVTHYSDSVQGRFTISRDNAKNTVYLQMNSLKSEDTGRYYCAEDYDTDVWQYWGQGTQVTVSS
